Experimental findings from publication PMC9356269, “A purified energy-converting hydrogenase from Thermoanaerobacter kivui demonstrates coupled H^+-translocation and reduction in vitro” (The Journal of Biological Chemistry, 2022) are described below.

The target in assay [1] is Ech2 complex (energy-converting hydrogenase 2) of T. kivui, His-tagged on Ech2C (Thermoanaerobacter kivui). Nature of the assay: native gel or EMSA; purified Ech2 on nondenaturing PAGE with size standards, Coomassie stain and in-gel hydrogenase activity assay; bands of about 230, 450 and 520 kDa, only the 450 and 520 kDa bands active.
The target of assay [2] is T1, Ech2 complex (energy-converting hydrogenase Ech2) (Thermoanaerobacter kivui, UniProt A0A097ATF1+A0A097ATH3+A0A097ATI1).
T1 construct: gene ech2A1; eight-subunit complex from T. kivui membranes (DDM), plasmid-encoded Ech2C with C-terminal 10x His tag, other subunits native; predicted monomer 248 kDa, active bands ~450 and ~520 kDa (dimer); with Energy-converting hydrogenase Ech2 subunit Ech2C; Energy-converting hydrogenase Ech2 subunit Ech2D; Energy-converting hydrogenase Ech2 subunit Ech2E; Energy-converting hydrogenase Ech2 subunit Ech2F; HycB2 (4Fe-4S ferredoxin-type subunit)
Nature of the assay: Fd2-:H+ oxidoreductase activity, H2 by gas chromatography. Format: biochemical. The following applies: read-out: 50% inhibition.

Assay [3] addresses Ech2 complex (energy-converting hydrogenase 2) of T. kivui, His-tagged on Ech2C (Thermoanaerobacter kivui).

In assay [1], “Ech2 complex (energy-converting hydrogenase 2) of T. kivui, His-tagged on Ech2C, A0A097ATI1 1-625; A0A097ATF1 1-380; A0A097ATH3 1-311; A0A097ATJ2 1-141; A0A097ATJ6 1-120; A0A097ATH9 1-364; A0A097ATH4 1-156; A0A097ATH8 1-132” yielded a stoichiometry N of 2.

As to `C(=NC1CCCCC1)=NC1CCCCC1` [DCCD], in assay [2], the IC50 is 9.9 ± 0.4 µM.

B1: ferredoxin (Fd) isolated from Clostridium pasteurianum (natural protein)
chain: MAYKIADSCVSCGACASECPVNAISQGDSIFVIDADTCIDCGNCANVCPVGAPVQE
As for B1, in assay [3], the Km for Fd of the H2:Fd oxidoreductase reaction of purified Ech2 (0 to 90 μM Fd) amounted to 17.8 µM.
